Assay results from the RNAGym collection of RNA variant scans (doi:10.7554/elife.90254).

B1: LINE1-full (parent)
chain: UACGUAGGUGGUUUUCCCCUGAUAGUGCUAAGGGGGCCUGGAAGUUUGGACUGGGCAGAGCUCAACACAGCGUGGCAAAGUGGCUGUGGCUAGACUGCCUCUCUGGAUUCCUCGUCACUCAGCAGGGCAUCUCUGAGAGAAAUGCC

Variants of: B1
Assay: self-cleavage, relative activity (ratio to wild type); higher = more cleavage; in vitro, sequencing; the parent is a self-cleaving ribozyme

Variant | self-cleavage
G8A U13C | 1.05
G36C U85C | 0.16
C128U A141G | 1.37
U119C A141G | 1.87
G137U | 1.31
G44A U134G | 1.02
A92U G127A | 0.39
C111U A136G | 1.26
G105A G114A | 0.75
U104C U119C | 1.96
A121C U134A | 0.84
A117C A142G | 1.8
G4A A59G | 0.12
C110A | 1.35
G54U U81A | 0.39
U104A C123U | 1.51
U20C U52C | 1.76
U13C A43G | 0.99
U20C G126A | 1.8
U87G U143A | 0.22
U13C A136G | 1.25
A77U U81C | 1.47
U85G A107G | 0.09
A2G U26G | 0.21

Variant | self-cleavage
A77G U87A | 0.09
U39C A78G | 0.95
A30G U130A | 1.15
U20C C131U | 1.18
A92U U100C | 0.9
C68A U87A | 0.01
G7U G54C | 0.49
U20C U112A | 0.61
A65U U91G | 0.06
U91A C116U | 0.53
U81A U91C | 0.77
U13C C71U | 0.58
A64G U104A | 0.32
G35A A136G | 1.21
A2G U39A | 0.89
U20G U85C | 0.18
U47A U73A | 1.11
A24G C120U | 1.29
C3A A94G | 0.3
A57G | 0.88
G82A U130A | 1.97
G126A A140U | 1.67
A67U C146A | 0.14
A117G C145U | 1.33

Variant | self-cleavage
U100C A136G | 1.91
A138C A140G | 0.07
A2G A141G | 0.78
U12G U26C | 0.57
G60C U96A | 0.04
A30U G32A | 0.89
G21C U109C | 1.18
U132C A140U | 1.43
A77U U134G | 1.47
C120U A124G | 1.26
A121U A129U | 1.41
A117U A129G | 1.69
U14C G32U | 1.03
U13C U134A | 1.03
A107G U119A | 1.91
U52C U134C | 1.01
U45C G127A | 0.55
G34A U132A | 1.51
G75A A94G | 0.25
U1C U130C | 1.04
A124U A141G | 1.36
G54U U108C | 0.36
U12G G33A | 1.47
C63A U119C | 0.02

Variant | self-cleavage
U14C C68U | 0.32
A43U A140U | 1.49
A6G A77U | 0.92
C38U A129U | 0.31
U46C A107G | 1.06
A79G U81G | 0.43
C113U A129U | 1.86
U29A U143A | 0.84
U12G U115C | 1.47
U39C A138U | 1.29
U15C A107G | 1.14
G97C | 0.19
C131A U134C | 1.53
U104A G106A | 0.84
G114A A138G | 1.47
U12G A142G | 0.83
A67G A117U | 0.53
U47G U96C | 0.21
G4A A30G | 0.59
U45G A77U | 1.15
U14G | 0.82
A31U U112C | 1.27
A30G U102C | 1.15
G35A U45C | 0.97

Variant | self-cleavage
G54A A65U | 0.1
U29G U134A | 1.41
A94G | 0.31
C28U U119C | 1.12
U46C U115G | 0
A117U G122U | 1.72
A6G U134C | 0.85
U73C U102C | 1.11
G35U G40A | 0.85
C61A A78G | 0.04
U73A G80A | 2.16
U62C G126A | 0.04
U96C U130C | 0.24
C61G U85C | 0.15
U39C U62A | 0.04
G7U U20C | 1.15
C66A A136G | 0.04
U45G G49A | 1.25
A31U A59U | 0.39
G53U A140C | 0.8
A117C A129U | 1
C19U U20C | 0.93
U26A G74U | 1.94
A57U C90U | 0.02

Variant | self-cleavage
G53U U62C | 0.08
C28U U143G | 1.02
U12G U20C | 1.02
U15C G35U | 1.55
U39A U85C | 0.19
G41U U134C | 1.21
G25A U26A | 1.07
G48A C131G | 0.17
A107G G114A | 1.18
C16A A124G | 0.4
U1A A77G | 1.66
U14G C118U | 1.84
C95U A121G | 0.33
U1A U119C | 1.73
U15A G53U | 0.72
G86A A136U | 0.06
A94U U112C | 0.37
A42G A121C | 0.84
C110U A140G | 1.41
U12A U46C | 1.31
U29C A65G | 0.09
U112A A140U | 1.79
U1A U62G | 0.36
A57G A69U | 0.07

Variant | self-cleavage
G48A U132A | 1.38
U39C A141U | 2.2
U100C C103A | 0.85
G35A A50G | 0.58
A22C U143C | 1.41
U134G A141G | 1.44
U108C A138G | 1.8
U102A C113A | 0.97
A67G C111A | 0.58
U102C G126A | 1.65
U5A U112C | 0.71
U108C C146U | 0.63
A129U G139A | 1.53
C3U U52C | 1.31
U23A U45C | 0.71
U1C A136G | 1.08
C110U U112A | 1.4
C3U U62A | 0.2
A2G A42U | 0.69
A43U G49A | 1.34
U52A A64G | 0.31
U29A A124C | 1.52
U1A U15C | 2.17
